Consider three molecules from patent publication US20240025956A1 (MIYAGI PREFECTURAL HOSPITAL ORGANIZATION, published 2024).

Changes are numbered by the printed parent chain.

Experiment [1] has as its target T1, mouse IL-2 receptor α (mouse, UniProt P01590 22-268).
T1 construct: whole, on cells; also called mouse IL-2Rα; CD25
T1 sequence (looked up): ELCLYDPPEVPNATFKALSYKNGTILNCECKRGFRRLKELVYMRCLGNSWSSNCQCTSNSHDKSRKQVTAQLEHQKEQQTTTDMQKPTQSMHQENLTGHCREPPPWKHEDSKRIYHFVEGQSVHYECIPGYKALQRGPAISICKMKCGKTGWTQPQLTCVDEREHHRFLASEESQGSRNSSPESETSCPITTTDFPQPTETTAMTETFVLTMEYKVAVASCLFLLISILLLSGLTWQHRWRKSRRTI
Description: NanoLuc on-cell binding, mouse IL-2Rα-expressing 293T, ratio 293Ta/293T, 10 nM. The procedure:
(§1) Next, IL-2 receptor α binding capability on cells (on-cell receptor binding) was measured. Specifically, 293T cells were obtained from the RIKEN Cell Bank (RCB2202). Human and mouse IL-2 receptor α-expressing 293T (293Ta) was established as cells stably expressing the IL-2 receptor α in 293T through use of lentiviral vectors (pSIN-EF-RfA2-1-human IL-2Ra and pSIN-EF-RfA2-1-mouse IL-2Ra) constructed respectively with human and mouse IL-2 receptor α-chain genes (NCBI Reference Sequence: NM_000417.2 and NM_008367.3) as cassettes. 293T and human or mouse 293Ta were allowed to adhere to a 24 wel cell culture plate (Techno Plastic Products AG, #92424). After that, a suspension (10 nM) of NanoLuc (trademark) luciferase sequence (Promega Corporation, USA)-fused mature stable mutant human MK-4-IL-2 (MK-4, pcDNA4-MK-4-NLuc, corresponding to a comparative example), mature stable mutant human MK-6-IL-2 (MK-6, pcDNA4-MK-6-NLuc), mature stable mutant human IL-2 (MK-14, pcDNA4-MK-14-NLuc, IL-2 positive control), or mature stable mutant human MK-15-IL-2 (MK-15, pcDNA4-MK-15-NLuc) was added, and the mixture was subjected to a reaction by being left at rest at 4° C. for 1 hour. The cells were washed, followed by quantification. The binding capability of mutant IL-2 for the α-subunit is shown as a numerical value for a ratio between amounts bound to 293Ta and 293T (293Ta/293T). […]

For a further experiment, the target named is T2, human IL-2 receptor α (human, UniProt P01589 22-272).
T2 construct: whole, on cells; also called IL-2Rα; CD25
T2 sequence (looked up): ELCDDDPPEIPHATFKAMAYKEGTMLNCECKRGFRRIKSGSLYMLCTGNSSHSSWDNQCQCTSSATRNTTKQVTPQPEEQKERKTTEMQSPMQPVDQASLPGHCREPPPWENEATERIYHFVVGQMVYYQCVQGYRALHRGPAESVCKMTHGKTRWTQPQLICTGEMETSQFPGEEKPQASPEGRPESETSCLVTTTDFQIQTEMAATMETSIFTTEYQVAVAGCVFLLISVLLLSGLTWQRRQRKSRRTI
In words: NanoLuc on-cell binding, human IL-2Rα-expressing 293T, ratio 293Ta/293T. The method, then:
as §1

Experiment [2] addresses T1, mouse IL-2 receptor α. In words: NanoLuc on-cell binding, mouse IL-2Rα-expressing 293T, ratio 293Ta/293T. The method, then: as §1

B1: NanoLuc luciferase sequence-fused mature stable mutant human MK-4-IL-2 (ligand, not shown: large carriers)
chain: APASSSTKKTQLQLEHLLLDLQMILNGINNYKNPALTAMLTFKFYMPKKATELKHLQCLEEELKPLEEVLNLAQSKNFHLRPRDLISNINVIVLELKGSETTFMCEYADETATIVEFLNRWITFAQSIISTLT
notes: also called pcDNA4-MK-4-NLuc
Regarding B1, the binding result with mouse IL-2 receptor α [1] is listed as “binds”.

B2: NanoLuc luciferase sequence-fused mature stable mutant human MK-6-IL-2 (ligand, not shown: large carriers)
chain: B1 chain with K43A, Y45A
notes: also called pcDNA4-MK-6-NLuc
Consider B2, for which, in the experiment with human IL-2 receptor α, the binding result is given as “no binding (tested: 10 nM)”.

B3: NanoLuc luciferase sequence-fused mature stable mutant human MK-15-IL-2 (ligand, not shown: large carriers)
chain: B1 chain with F42A, Y45A
notes: also called pcDNA4-MK-15-NLuc
As for B3, the binding result in the experiment with human IL-2 receptor α and with mouse IL-2 receptor α [2] was “no binding (tested: 10 nM)” in each case.
